Biological target: the molecule itself
Assay: SEC-MALS; Superdex 200 10/300; 500 ul of 2 mg/ml protein loaded, 0.5 ml/min; purification buffer of full-length TgLaforin (50 mM Hepes, 100 mM NaCl, 15 mM imidazole, 2 mM DTT, pH 8.0)

B1: TgLaforin (Toxoplasma gondii laforin, glucan phosphatase), full length (enzyme, UniProt S8F2K7 1-523, looked up)
chain: MRVRFSVTAFVPPNAQLGVVGSAPFLGEWKLEHCVPLMPYSAPHPQGLEPSLWFRDIDLDPASCPNDTNDVHSTAAVSASCSADRRRCDLSRQSPHCFPSARSASPYMVEVSRGDCPFAVELMSTSQHVLSEFSKHNSPVYSAGEQRFRRSLPSSASFSSCTSSGSAVAATKCVWDAAAYRVATRAPEVQAVLESHPLRHCAFEYKFVLWYPPNGEIAVPYVPTTAGEEVPITYAGDSEVLNEESEGGARRRSWRKWLFPPSPSRCPAPPGPSESIVWEGFGPDSNRKFCFDPFDVVVDVNELGDLECLYICRIAHFRDPRAGGVGEYDLTTRFYNSVKSECRMHYSTIFPRFFVGSCPRQLKHIRHLKEELKVTCVVNLQTEQDLCNNYPDPIASSRSAEAVSQLYDGSGLRYVWLPTADMCDSARKIAVANAAFLLLGLFQSGHSVYMHCNAGVGRSVAAACAFLCFAVGLDLRKVNFLICARRPVAYWDEKAMKYGIGDYQAKFGHCRVVGEEAEERQHA
notes: TgLaforin, Toxoplasma gondii glucan phosphatase, ToxoDB TGME49_205290, 523 amino acids; N-terminal split CBM20 followed by a DSP domain; predicted recombinant monomer 61.5 kDa; also called T. gondii laforin; full-length TgLaforin; source: Sf9 insect cells (baculovirus), purified (Ni-agarose, SEC) to >95% homogeneity
  stoichiometry N: 2

Source: publication PMC9254107, “The Toxoplasma glucan phosphatase TgLaforin utilizes a distinct functional mechanism that can be exploited by therapeutic inhibitors” (The Journal of Biological Chemistry, 2022)
